# Measurements from patent US20210246218A1.
# Target: human FcγRIIB-Ile232 on CHO-K1 cells (human) (UniProt P31994)
# Assay: flow cytometry on CHO-huFcγRIIB cells, anti-human Fc F(ab')2
# human FcγRIIB-Ile232 on CHO-K1 cells (human), sequence (P31994 43-310): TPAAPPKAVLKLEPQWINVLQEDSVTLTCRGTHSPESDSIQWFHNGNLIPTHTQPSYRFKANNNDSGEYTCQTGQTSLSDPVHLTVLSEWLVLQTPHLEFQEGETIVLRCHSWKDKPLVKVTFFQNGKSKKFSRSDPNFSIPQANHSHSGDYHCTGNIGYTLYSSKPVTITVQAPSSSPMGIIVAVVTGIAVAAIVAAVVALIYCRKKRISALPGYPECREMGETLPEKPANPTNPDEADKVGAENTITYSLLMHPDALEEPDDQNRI
substance,measurement,value
Avastin (antibody),EC50 (read off the curve),5 µg/mL
